In patent US20110294738A1, “PTHR1 RECEPTOR COMPOUNDS” (priority 2008, published 2011):
Peptide text beside a SMILES is read from it. * marks the point of attachment. Palmitoyl = CCCCCCCCCCCCCCCC(=O)*

Assays:
[1] = molecular target: T1, PTHR1 (Rattus norvegicus, UniProt P25961)
T1 sequence (P25961 27-591): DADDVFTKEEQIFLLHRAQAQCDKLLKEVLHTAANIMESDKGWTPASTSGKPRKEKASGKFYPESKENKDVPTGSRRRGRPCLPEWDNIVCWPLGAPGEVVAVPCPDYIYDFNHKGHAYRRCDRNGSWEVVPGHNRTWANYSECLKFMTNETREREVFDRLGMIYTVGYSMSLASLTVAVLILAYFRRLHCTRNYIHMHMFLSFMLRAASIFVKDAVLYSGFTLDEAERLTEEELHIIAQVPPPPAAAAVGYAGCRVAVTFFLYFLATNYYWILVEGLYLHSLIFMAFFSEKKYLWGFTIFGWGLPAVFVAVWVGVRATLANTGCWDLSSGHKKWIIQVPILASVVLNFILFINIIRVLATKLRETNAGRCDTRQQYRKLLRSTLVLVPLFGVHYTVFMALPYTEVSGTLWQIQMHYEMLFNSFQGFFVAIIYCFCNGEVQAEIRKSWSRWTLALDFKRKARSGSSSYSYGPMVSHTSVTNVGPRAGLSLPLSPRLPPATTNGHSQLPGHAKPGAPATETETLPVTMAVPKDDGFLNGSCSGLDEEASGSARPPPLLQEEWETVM

[2] = molecular target: T1, PTHR1; test: cAMP screening assay using DiscoveRX XS+ kit (PTH1-34 dose-response in UMR-106 cells); conditions: compound 10 μM, PTH1-34 stimulated maximal response, 1−(Emax compound/Emax vehicle)

Compound: SGRVLATKLR [Compound 71]
- Fold Shift of EC50 [1]: 0.8
- Inhibition of Maximal Response [2]: 13.50%

Compound: TNAGRSDTRQQYRKLLA [Compound 87]
- Fold Shift of EC50 [1]: 4.1
- Inhibition of Maximal Response [2]: 8.00%

Compound: KKSWSRWTLALDFKRKAR [Compound 97]
- Fold Shift of EC50 [1]: 4.7
- Inhibition of Maximal Response [2]: 37.20%

Compound: RETNAGRSDTRQ [Compound 63]
- Fold Shift of EC50 [1]: 1.1
- Inhibition of Maximal Response [2]: 1.20%

Compound: RRLHSTRNYIHM [Compound 15]
- Fold Shift of EC50 [1]: 1.7
- Inhibition of Maximal Response [2]: 1.50%

Compound: RETNAGRSDTRQQYRKLLFS [Compound 58]
- Fold Shift of EC50 [1]: 17.74

Compound: AGRSDTRQQYRKLLKS [Compound 65]
- Fold Shift of EC50 [1]: 14.65

Compound: AGRSDTRQQYRKLLFA [Compound 94]
- Fold Shift of EC50 [1]: 18.7
- Inhibition of Maximal Response [2]: −24.40%

Compound: NIVRVLATKLRETNAGR [Compound 54]
- Fold Shift of EC50 [1]: 0.7
- Inhibition of Maximal Response [2]: 17.50%

Compound: HSLIFMAFFSEKKYL [Compound 33]
- Fold Shift of EC50 [1]: 1.1
- Inhibition of Maximal Response [2]: 27.50%

Compound: KLRETNAGRSDTRQQY [Compound 53]
- Fold Shift of EC50 [1]: 2.1
- Inhibition of Maximal Response [2]: 6.40%

Compound: CCCCCCCCCCCCCCCC(=O)N[C@@H](CC(N)=O)C(=O)NCC(=O)N[C@@H](CCC(=O)O)C(=O)N[C@H](C(=O)N[C@@H](CCC(N)=O)C(=O)N[C@@H](C)C(=O)N[C@@H](CCC(=O)O)C(=O)N[C@H](C(=O)N[C@@H](CCCCN)C(=O)N[C@@H](CCCCN)C(=O)N[C@@H](CO)C(=O)N[C@@H](Cc1c[nH]c2ccccc12)C(N)=O)[C@@H](C)CC)C(C)C [Compound 99] (Palmitoyl-NGEVQAEIKKSW-NH2)
- Fold Shift of EC50 [1]: 1

Compound: RRLHSTRNYIHMHL [Compound 16]
- Fold Shift of EC50 [1]: 2.45

Compound: GSEKKYLWG [Compound 43]
- Fold Shift of EC50 [1]: 1.4
- Inhibition of Maximal Response [2]: 5.70%

Compound: TNAGRSDTRQQYRF [Compound 70]
- Fold Shift of EC50 [1]: 2
- Inhibition of Maximal Response [2]: 15.10%

Compound: SGRVLATKLRETNAGR [Compound 74]
- Fold Shift of EC50 [1]: 1.9
- Inhibition of Maximal Response [2]: 22.20%

Compound: RETNAGRSDTRQQYRKLLKS [Compound 51]
- Fold Shift of EC50 [1]: 12.45

Compound: NGEVQAEIKKSWSRWT [Compound 101]
- Fold Shift of EC50 [1]: 1.2
- Inhibition of Maximal Response [2]: 25.30%

Compound: TNAGRSDTRQQYRKLA [Compound 88]
- Fold Shift of EC50 [1]: 2.8
- Inhibition of Maximal Response [2]: −25.00%

Compound: GSEKKYLWGFT [Compound 42]
- Fold Shift of EC50 [1]: 1.3
- Inhibition of Maximal Response [2]: 40.80%

Compound: DTRQQYRKLLKS [Compound 67]
- Fold Shift of EC50 [1]: 6
- Inhibition of Maximal Response [2]: 6.90%

Compound: SGRRLHSTRNYIHMH [Compound 17]
- Fold Shift of EC50 [1]: 2.8
- Inhibition of Maximal Response [2]: 39.40%

Compound: RVLATKLRETNAGR [Compound 75]
- Fold Shift of EC50 [1]: 1.1
- Inhibition of Maximal Response [2]: 12.60%

Compound: LYLHSLIFMAFFSEKKYLWG [Compound 38]
- Fold Shift of EC50 [1]: 1.1
- Inhibition of Maximal Response [2]: 21.90%

Compound: LAYFRRLHSTRNYIHMH [Compound 10]
- Fold Shift of EC50 [1]: 1.1
- Inhibition of Maximal Response [2]: 24.10%

Compound: RETNAGRSDTRQQYRK [Compound 60]
- Fold Shift of EC50 [1]: 3.3
- Inhibition of Maximal Response [2]: 4.30%

Compound: CCCCCCCCCCCCCCCC(=O)N[C@@H](Cc1c[nH]c2ccccc12)C(=O)N[C@H](C(=O)N[C@@H](CC(C)C)C(=O)N[C@@H](C)C(=O)N[C@@H](CC(C)C)C(=O)N[C@@H](CC(=O)O)C(=O)NC(Cc1ccccc1)C(=O)N[C@@H](CCCCN)C(=O)N[C@@H](CCCNC(=N)N)C(=O)N[C@@H](CCCCN)C(=O)N[C@@H](C)C(=O)N[C@@H](CCCNC(=N)N)C(N)=O)[C@@H](C)O (some centres unmarked) [Compound 103]
- Fold Shift of EC50 [1]: 1.2

Compound: NIVRVLATKLRE [Compound 55]
- Fold Shift of EC50 [1]: 0.6
- Inhibition of Maximal Response [2]: 26.10%

Compound: TNAGRSDTRQQYRKLLKS [Compound 64]
- Fold Shift of EC50 [1]: 7
- Inhibition of Maximal Response [2]: −0.10%

Compound: VLATKLRETNAGRSDTRQQ [Compound 46]
- Fold Shift of EC50 [1]: 0.9
- Inhibition of Maximal Response [2]: 20.30%

Compound: RETNAGRSDTRQQY [Compound 62]
- Fold Shift of EC50 [1]: 1.1
- Inhibition of Maximal Response [2]: −5.40%
